Among the data in publication PMC10786891, “Massively parallel profiling of RNA-targeting CRISPR-Cas13d” are Kd values, retold here.

T1: EsCas13d, nuclease-dead (Eubacterium siraeum, UniProt B0MS50, R295A;H300A;R849A;H854A)
T1 sequence: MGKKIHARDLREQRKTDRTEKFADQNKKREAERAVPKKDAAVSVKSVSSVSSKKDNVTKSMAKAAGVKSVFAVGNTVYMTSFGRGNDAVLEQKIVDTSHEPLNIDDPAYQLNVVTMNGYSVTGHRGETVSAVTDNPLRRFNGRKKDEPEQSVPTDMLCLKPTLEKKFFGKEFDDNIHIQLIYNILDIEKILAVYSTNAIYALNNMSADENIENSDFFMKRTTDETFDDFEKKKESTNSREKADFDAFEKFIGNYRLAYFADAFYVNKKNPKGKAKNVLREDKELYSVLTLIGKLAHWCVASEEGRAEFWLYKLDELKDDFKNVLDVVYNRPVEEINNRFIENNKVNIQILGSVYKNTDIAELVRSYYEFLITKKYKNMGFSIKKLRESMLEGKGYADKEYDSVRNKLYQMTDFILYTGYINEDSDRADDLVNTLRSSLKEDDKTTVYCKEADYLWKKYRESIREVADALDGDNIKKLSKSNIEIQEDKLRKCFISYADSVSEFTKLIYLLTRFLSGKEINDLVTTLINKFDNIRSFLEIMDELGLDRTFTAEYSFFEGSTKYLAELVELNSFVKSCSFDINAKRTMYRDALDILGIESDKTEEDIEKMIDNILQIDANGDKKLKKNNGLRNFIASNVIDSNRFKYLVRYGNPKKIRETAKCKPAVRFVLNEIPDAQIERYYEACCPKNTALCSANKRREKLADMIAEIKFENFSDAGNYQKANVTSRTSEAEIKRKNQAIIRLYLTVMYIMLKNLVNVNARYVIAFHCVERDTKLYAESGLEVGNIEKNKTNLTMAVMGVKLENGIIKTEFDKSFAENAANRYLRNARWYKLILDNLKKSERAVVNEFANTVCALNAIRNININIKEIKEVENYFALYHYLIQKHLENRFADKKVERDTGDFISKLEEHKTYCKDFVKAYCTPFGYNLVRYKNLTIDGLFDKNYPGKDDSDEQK

B1: target 1 insG 3' of 22,insC 3' of 12 (mixed)
RNA 1: CACCCGUGCAAAAAUGCAGGGGUCUAAAACUGAGCGGAUAACCUCUCUAUGG
RNA 2: GGGAAUGGAUCCACAUCUACGAAUUCGUACGCAUAGAGAGGCUUAUCCGCUCACCGAGAUCGGAAGAGCACACGU
B2: target 1 insC 3' of 14,insC 3' of 3 (mixed)
RNA 1: B1 RNA 1
RNA 2: GGGAAUGGAUCCACAUCUACGAAUUCGUACCAUAGAGACGGUUAUCCGCUCCACCGAGAUCGGAAGAGCACACGU
B3: target 1 insA 3' of 12,insU 3' of 4 (mixed)
RNA 1: B1 RNA 1
RNA 2: B2 RNA 2 with C39G, G41A, C51U
B4: target 2 MT 5'PFS ACC 3'PFS CAG (mixed)
RNA 1: CACCCGUGCAAAAUUGCAGGGGUCUAAAACCUUCUCCAAAUUGUUUCAUCCU
RNA 2: GGGAAUGGAUCCACAUCUACGAAUUCACCAGGAUGAAACAAUUUGGAGAAGCAGAGAUCGGAAGAGCACACGU
B5: target 2 MT 5'PFS CAC 3'PFS UAC (mixed)
RNA 1: B4 RNA 1
RNA 2: B4 RNA 2 with A27C, C28A, C52U, G54C
B6: target 2 MT 5'PFS AGC 3'PFS AUA (mixed)
RNA 1: B4 RNA 1
RNA 2: B4 RNA 2 with C28G, C52A, A53U, G54A
B7: target 2 MT 5'PFS UCG 3'PFS UAA (mixed)
RNA 1: B4 RNA 1
RNA 2: B4 RNA 2 with A27U, C29G, C52U, G54A
B8: target 2 MT 5'PFS ACG 3'PFS AGC (mixed)
RNA 1: B4 RNA 1
RNA 2: B4 RNA 2 with C29G, C52A, A53G, G54C
B9: target 2 MT 5'PFS CAA 3'PFS CCA (mixed)
RNA 1: B4 RNA 1
RNA 2: B4 RNA 2 with A27C, C28A, C29A, A53C, G54A
B10: target 2 MT 5'PFS CGG 3'PFS CCG (mixed)
RNA 1: B4 RNA 1
RNA 2: B4 RNA 2 with A27C, C28G, C29G, A53C
B11: target 2 MT 5'PFS GUU 3'PFS AUC (mixed)
RNA 1: B4 RNA 1
RNA 2: B4 RNA 2 with A27G, C28U, C29U, C52A, A53U, G54C
B12: target 2 MT 5'PFS UCG 3'PFS UAG (mixed)
RNA 1: B4 RNA 1
RNA 2: B4 RNA 2 with A27U, C29G, C52U
B13: target 2 MT 5'PFS GUU 3'PFS AUG (mixed)
RNA 1: B4 RNA 1
RNA 2: B4 RNA 2 with A27G, C28U, C29U, C52A, A53U
B14: target 2 MT 5'PFS CGC 3'PFS UCG (mixed)
RNA 1: B4 RNA 1
RNA 2: B4 RNA 2 with A27C, C28G, C52U, A53C
B15: target 2 MT 5'PFS CAC 3'PFS UAA (mixed)
RNA 1: B4 RNA 1
RNA 2: B4 RNA 2 with A27C, C28A, C52U, G54A
B16: target 2 MT 5'PFS UCG 3'PFS UAU (mixed)
RNA 1: B4 RNA 1
RNA 2: B4 RNA 2 with A27U, C29G, C52U, G54U
B17: target 2 MT 5'PFS CAA 3'PFS CCG (mixed)
RNA 1: B4 RNA 1
RNA 2: B4 RNA 2 with A27C, C28A, C29A, A53C
B18: target 2 MT 5'PFS ACG 3'PFS UUC (mixed)
RNA 1: B4 RNA 1
RNA 2: B4 RNA 2 with C29G, C52U, A53U, G54C
B19: target 2 MT 5'PFS AGC 3'PFS AUG (mixed)
RNA 1: B4 RNA 1
RNA 2: B4 RNA 2 with C28G, C52A, A53U
B20: target 2 MT 5'PFS AGC 3'PFS AUC (mixed)
RNA 1: B4 RNA 1
RNA 2: B4 RNA 2 with C28G, C52A, A53U, G54C
B21: target 2 MT 5'PFS CGC 3'PFS UCA (mixed)
RNA 1: B4 RNA 1
RNA 2: B4 RNA 2 with A27C, C28G, C52U, A53C, G54A
B22: target 2 MT 5'PFS CGC 3'PFS UCC (mixed)
RNA 1: B4 RNA 1
RNA 2: B4 RNA 2 with A27C, C28G, C52U, A53C, G54C
B23: target 2 MT 5'PFS GCG 3'PFS UUC (mixed)
RNA 1: B4 RNA 1
RNA 2: B4 RNA 2 with A27G, C29G, C52U, A53U, G54C
B24: target 2 MT 5'PFS GUU 3'PFS AUA (mixed)
RNA 1: B4 RNA 1
RNA 2: B4 RNA 2 with A27G, C28U, C29U, C52A, A53U, G54A
B25: target 2 MT 5'PFS AGC 3'PFS AUU (mixed)
RNA 1: B4 RNA 1
RNA 2: B4 RNA 2 with C28G, C52A, A53U, G54U
B26: target 2 MT 5'PFS ACG 3'PFS AGA (mixed)
RNA 1: B4 RNA 1
RNA 2: B4 RNA 2 with C29G, C52A, A53G, G54A
B27: target 2 MT 5'PFS GUU 3'PFS AUU (mixed)
RNA 1: B4 RNA 1
RNA 2: B4 RNA 2 with A27G, C28U, C29U, C52A, A53U, G54U
B28: target 2 MT 5'PFS GCG 3'PFS UUA (mixed)
RNA 1: B4 RNA 1
RNA 2: B4 RNA 2 with A27G, C29G, C52U, A53U, G54A
B29: target 2 MT 5'PFS CGG 3'PFS CCC (mixed)
RNA 1: B4 RNA 1
RNA 2: B4 RNA 2 with A27C, C28G, C29G, A53C, G54C
B30: target 2 MT 5'PFS CUC 3'PFS AAU (mixed)
RNA 1: B4 RNA 1
RNA 2: B4 RNA 2 with A27C, C28U, C52A, G54U
B31: target 2 MT 5'PFS AGG 3'PFS UCU (mixed)
RNA 1: B4 RNA 1
RNA 2: B4 RNA 2 with C28G, C29G, C52U, A53C, G54U
B32: target 2 MT 5'PFS GCG 3'PFS AUA (mixed)
RNA 1: B4 RNA 1
RNA 2: B4 RNA 2 with A27G, C29G, C52A, A53U, G54A
B33: target 2 MT 5'PFS CGG 3'PFS CCA (mixed)
RNA 1: B4 RNA 1
RNA 2: B4 RNA 2 with A27C, C28G, C29G, A53C, G54A
B34: target 2 MT 5'PFS ACU 3'PFS UGU (mixed)
RNA 1: B4 RNA 1
RNA 2: B4 RNA 2 with C29U, C52U, A53G, G54U
B35: target 2 MT 5'PFS UGU 3'PFS UGU (mixed)
RNA 1: B4 RNA 1
RNA 2: B4 RNA 2 with A27U, C28G, C29U, C52U, A53G, G54U

Changes are numbered by the printed parent chain.

The series addresses T1, EsCas13d, nuclease-dead. Briefly: crRNA (strand 1, pre-loaded); Mg2+; 40 mM Tris-HCl pH 7.5, 150 mM NaCl, 6 mM MgCl2, 1 mM DTT, 0.1% Tween-20, 0.2 mg/ml BSA; 25 C; 10 min per concentration, then washed. Conditions: tags: His6-TwinStrep-SUMO cleaved; N-terminal SNAP kept (SNAP-Surface 488); label: 3' end held by stalled T7 RNA polymerase.
B1: the affinity, expressed as Kd, was 42 ± 6 nM.
In turn, B2 had a Kd of 45 ± 7 nM.
B3: the Kd was 26.3 ± 1.7 nM.
As to B4, the Kd was 5.1 ± 0.9 nM.
In turn, B5 had a Kd of 1.66 ± 0.25 nM.
On to B6, for which the affinity, expressed as Kd, was 7.1 ± 1.3 nM.
As for B7, the Kd came out at 15 ± 4 nM.
B8: the Kd came to 6.4 ± 1.1 nM.
In the case of B9 it was 10 ± 5 nM.
B10 registered a Kd of 4.7 ± 0.4 nM.
The molecule B11 returned a Kd of 15 ± 1.2 nM.
In the case of B12 it was 27 ± 7 nM.
In turn, B13 displayed a dissociation constant Kd of 19.6 ± 2.4 nM.
Turning to B14, binding was characterised by a dissociation constant (Kd) of 7.9 ± 1.1 nM.
Take B15: the Kd is 2.3 ± 0.4 nM.
Regarding B16, the Kd stood at 34 ± 14 nM.
Molecule B17 displayed a Kd of 7.3 ± 2.9 nM.
For B18, the Kd stood at 16 ± 6 nM.
B19 yielded a Kd of 12.6 ± 2.9 nM.
B20 showed a Kd of 10.9 ± 2.8 nM.
The molecule B21 displayed a Kd of 5.5 ± 1.7 nM.
B22 yielded a Kd of approximately 60 nM.
B23: the Kd was 21 ± 4 nM.
B24 had a Kd of 13.3 ± 1.9 nM.
Regarding B25, the Kd was determined as 6.8 ± 1.2 nM.
Take B26: the Kd came out at 7.8 ± 2.4 nM.
As to B27, the equilibrium dissociation constant (Kd) was determined as 11.6 ± 1.4 nM.
The molecule B28 had a Kd of 21 ± 4 nM.
For B29, the Kd is approximately 19 nM.
In the case of B30, the dissociation constant Kd was determined as 2.32 ± 0.27 nM.
B31 returned a dissociation constant Kd of 13.8 ± 2.1 nM.
B32 came in with a Kd of 10.6 ± 2.1 nM.
With B33, the Kd worked out at 37 ± 18 nM.
Molecule B34 had a dissociation constant Kd of 8.1 ± 1 nM.
Consider B35, for which the Kd is 18.9 ± 2.7 nM.

As usually defined, the Kd is the equilibrium constant for the complex coming apart. A low value points to higher affinity.
